These results are taken from US20100239568A1, “DIAGNOSTICS AND TREATMENTS FOR TUMORS” (GENENTECH, INC., priority 2006, published 2010).

One assay deals with HUVEC cells. In words: HUVEC proliferation assay. The assay is classed as cell-based, human. Conditions: found in high salt fraction of EL4 and L1210 tumor lysates. How it is done: HUVEC proliferation assay: HUVEC at passage less than 8 were used in the study. Day 1: 3000 cells/well (96-well plate) were plated onto 1% gelatin-coated plate in the assay media (DMEM:F12 50:50) with 1.5% FBS. Day 2: Media was changed and cells were treated with various growth factors or conditioned media. Day 3: ^3H-thymidine was added at 0.5 μCi/well. Day 4: 250 mM EDTA/well was added to stop the reaction in the morning. Cells were harvested onto 96-well filter plate and washed with water 3 times. ^3H samples were counted with TOPCOUNT liquid scintillation counter.

A further assay deals with monocytes. Description: Monocyte migration assay. The assay is classed as cell-based, human. To be noted: found in high salt fraction of EL4 and L1210 tumor lysates. How it is done:
Monocyte migration assay: Step 1: isolation of monocyte from human PBMC. Blood was diluted with PBS 1:1 (v/v). The diluted blood was slowly added on top of Ficoll and centrifuged at 3000 rpm for 15 min at room temperature (RT) without break. Plasma was removed and white cells were collected (9˜5 ml interphase). Cells were washed in migration buffer containing PBS with 0.5% BSA (low in endotoxin), spun at 1850 rpm (9˜800 g) for 10 min at RT and cells were counted. Step 2: Magnetic labeling of cells. Cell pellet was resuspended in MACS buffer containing PBS with 0.5% BSA (low in endotoxin) and 2 mM EDTA, 30 μl per 10^7 cells. FcR blocking reagent and Biotin-antibody cocktails were added and mixed well. The cells were then incubated for 10 min at 4° C. after which 30 μl more MACS buffer per 10^7 cells was added and anti-biotin Microbeads was added. This was mixed well and incubated for 10 min at 4° C. Cells were washed with MACS buffer by adding 10-20 fold more of the labeling volume, spun at 300g (1250 rpm) for 10 min. Cells were resuspended in up to 10^8 cells in 2 ml buffer. Step 3: Magnetic separation with LS columns. LS column (Miltenyi Biotec) was placed in the magnetic field holder. Column was rinsed with MACS buffer. Cell suspension was applied to the column. Unlabelled flow was collected, which represents enriched monocyte fraction. […]

B1: bFGF: growth factor found in the high salt fraction of resistant tumor lysates (protein, UniProt P15655 10-154, looked up)
Fibroblast growth factor 2: PALPEDGGAAFPPGHFKDPKRLYCKNGGFFLRIHPDGRVDGVREKSDPHVKLQLQAEERGVVSIKGVCANRYLAMKEDGRLLASKCVTEECFFFERLESNNYNTYRSRKYSSWYVALKRTGQYKLGSKTGPGQKAILFLPMSAKS
In the case of B1, the “proliferation of HUVEC cells” value in the assay on HUVEC cells is listed as “contribute to the proliferation of HUVEC cells”. Besides, the chemotactic activity entry in the assay with monocytes is reported as “not chemotactic activity”.
